Positions of bridges follow the written chain, without caps; N, C: chain ends. No end group written: not given here.
Tests used:
[1] = biological target: bovine serum albumin (bovine) (UniProt P02769); experiment: phage ELISA, BSA only, 10^10 phagemid per well
[2] = biological target: unrelated control antibody; experiment: phage ELISA, coated control mAb, 10^10 phagemid per well
[3] = biological target: unrelated control antibody; experiment: phage ELISA, coated control mAb, 10^9 phagemid per well
[4] = biological target: bovine serum albumin (bovine) (UniProt P02769); experiment: phage ELISA, BSA only, 10^9 phagemid per well
[5] = biological target: unrelated control antibody; experiment: phage ELISA, coated control mAb, 10^8 phagemid per well
[6] = biological target: bovine serum albumin (bovine) (UniProt P02769); experiment: phage ELISA, BSA only, 10^8 phagemid per well

Sequence of bovine serum albumin (bovine) (P02769 25-607 limits assumed): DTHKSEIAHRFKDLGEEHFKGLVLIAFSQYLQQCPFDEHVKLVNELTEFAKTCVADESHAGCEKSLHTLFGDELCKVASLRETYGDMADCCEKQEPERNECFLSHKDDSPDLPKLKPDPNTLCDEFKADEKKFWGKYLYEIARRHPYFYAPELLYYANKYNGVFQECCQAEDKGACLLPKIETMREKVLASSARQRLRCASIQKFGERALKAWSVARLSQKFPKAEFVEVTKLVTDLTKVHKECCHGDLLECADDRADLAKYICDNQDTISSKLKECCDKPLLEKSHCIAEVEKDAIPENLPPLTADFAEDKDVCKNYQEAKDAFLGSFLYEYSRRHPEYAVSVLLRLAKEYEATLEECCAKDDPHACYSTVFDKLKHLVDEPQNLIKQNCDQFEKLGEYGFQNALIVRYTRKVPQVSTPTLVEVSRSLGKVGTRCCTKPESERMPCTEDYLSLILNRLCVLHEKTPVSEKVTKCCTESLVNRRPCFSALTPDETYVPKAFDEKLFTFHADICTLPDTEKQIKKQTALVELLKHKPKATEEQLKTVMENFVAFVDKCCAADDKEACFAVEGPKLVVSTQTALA

Binder | ELISA (absorbance units) (absorbance units) [1] | ELISA (absorbance units) (absorbance units) [2] | ELISA (absorbance units) (absorbance units) [3] | ELISA (absorbance units) (absorbance units) [4] | ELISA (absorbance units) (absorbance units) [5] | ELISA (absorbance units) (absorbance units) [6]
CSGLYPWDYFMCS (disulfide 1-12 (inferred); also: displayed on phage (phagemid)) [phagemid CS1-29p (phage-displayed disulfide cyclized 13 mer peptide)] | 0.141 | 0.148 | 0.136 | 0.147 | 0.125 | 0.127
CSFFYSLCYCWCS (disulfide (positions not given here); also: four Cys, disulfide pairing not given here) [phagemid CS1-31p (phage-displayed disulfide cyclized 13 mer peptide)] | 0.112 | 0.125 | 0.118 | 0.114 | 0.116 | 0.109
CSFRYQWDMFRCS (disulfide 1-12 (inferred); also: displayed on phage (phagemid)) [phagemid CS1-11p (phage-displayed disulfide cyclized 13 mer peptide)] | 0.304 | 0.242 | 0.258 | 0.278 | 0.252 | 0.268
CSGLYPWDMFRCS (disulfide 1-12 (inferred); also: displayed on phage (phagemid)) [phagemid CS1-9p (phage-displayed disulfide cyclized 13 mer peptide)] | 0.221 | 0.213 | 0.204 | 0.22 | 0.209 | 0.216
CSFRYLWDQDRCS (disulfide 1-12 (inferred); also: displayed on phage (phagemid)) [phagemid CS1-6p (phage-displayed disulfide cyclized 13 mer peptide)] | 0.275 | 0.203 | 0.172 | 0.27 | 0.173 | 0.254
CSLFYLWDQDRCS (disulfide 1-12 (inferred); also: displayed on phage (phagemid), coat fusion not given here) [phagemid CS1-2p (phage-displayed disulfide cyclized 13 mer peptide)] | 0.327 | 0.228 | 0.199 | 0.277 | 0.188 | 0.264

Source: patent US20140147868A1
